From US20060121462A1, “Receptor and screening methods” (priority 2003, published 2006) come the findings set out here.

The target of test [1] is human C5L2 (human) (UniProt Q9P296). Briefly: flow cytometry, binding/uptake of FLUOS-ASP on HEK 293 cells transiently transfected with C5L2, 30 min at 37 C.
The target is the same in test [2]. Put plainly: competition with 50 pM 125I-C3a on C5L2-transfected RBL cells, 4 C.
For test [3] the target is unchanged. Briefly: competition with 50 pM 125I-C5a on C5L2-transfected RBL cells, 4 C.

Chain of recombinant His6-tagged C3a, P01024 672-748 (ligand; other documents disagree on this pair) (P01024 672-748 limits assumed): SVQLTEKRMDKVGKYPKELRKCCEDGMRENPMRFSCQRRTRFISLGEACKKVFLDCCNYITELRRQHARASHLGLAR
Chain of human C5L2 (human) (Q9P296 whole entry): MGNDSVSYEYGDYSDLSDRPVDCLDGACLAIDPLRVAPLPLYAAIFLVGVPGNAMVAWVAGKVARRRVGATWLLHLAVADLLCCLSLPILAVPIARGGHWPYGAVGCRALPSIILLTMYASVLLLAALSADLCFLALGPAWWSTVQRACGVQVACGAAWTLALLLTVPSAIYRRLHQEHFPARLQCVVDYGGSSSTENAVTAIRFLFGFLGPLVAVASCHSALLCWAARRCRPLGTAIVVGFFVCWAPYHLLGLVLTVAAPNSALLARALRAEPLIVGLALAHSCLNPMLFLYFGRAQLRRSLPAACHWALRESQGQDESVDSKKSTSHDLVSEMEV
Chain of recombinant C3a des-Arg^77, P01024 672-747 (ligand; other documents disagree on this pair) (P01024 672-747 limits assumed): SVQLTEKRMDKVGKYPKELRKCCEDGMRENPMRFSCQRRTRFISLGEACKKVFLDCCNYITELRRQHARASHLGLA

On to “plasma ASP (C3a des-Arg^77), purified from human plasma, P01024 672-747 (ligand; FLUOS (fluorescein) label in the flow cytometry assays, ^125I label in one assay; labelled residues not stated; other documents disagree on this pair)”, for which the EC50 in the test with human C5L2 (human) [1] amounted to 0.003 µM.
Consider “recombinant C3a des-Arg^77, P01024 672-747 (ligand; other documents disagree on this pair)”, for which, in the test with human C5L2 (human) [2], the IC50 came out at 0.526 µM and the pD2 was 6.24 -log IC50. In the test with human C5L2 (human) [3], the IC50 is 180 µM and the pD2 is 4.73 -log IC50.
For “recombinant His6-tagged C3a, P01024 672-748 (ligand; other documents disagree on this pair)”, in that order: 0.167 µM, 6.78 -log IC50, 230 µM and 4.64 -log IC50.
